Test results reported in the supplement of paper PMC10567573.

B1: MYBL2 (parent)
chain: FPNRTDQQCQYRWLRVLNPDLVKG
B2: PTPRD (parent)
chain: PVVSMDLDPQPITDEEEGLIWVVG

Variants of: B1
Test: protein stability index of a GFP-peptide fusion (GPS, HEK-293T) (PSI 1-6); higher = more stable
Conditions: c terminus: a fixed tail appended
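Also: lentivirally expressed fusions sorted by FACS into six bins by GFP to DsRed ratio, PSI derived from sequencing read proportions per bin multiplied by bin number.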

Protein stability index of substitutions, site by site:
W13: F 2.75, S 3.03, I 1.91, Y 2.26, T 2.52
L17: H 1.6, S 2.78, N 2.28, K 2.47, C 1.79, D 1.91, Q 2.45, R 2.28, G 2.45, Y 1.34, V 2.04, E 2.32, T 1.63, I 2.01, P 2.56, M 1.95, F 1.41, A 2.41
V16: N 2.05, W 2.57, F 1.81, C 1.97, P 2.72, L 1.77, K 2.02, Q 2.46, Y 1.72, M 1.78, A 1.87, S 2.2, H 2.39, T 2.13, G 2.12, R 1.56, D 2.99, E 2.44, I 1.57
Y11: I 2.04, R 1.97, F 1.95, V 2.02, W 1.66, P 2.13, Q 1.85, K 2.23, H 2.24, E 3.11, G 2.31, S 2.11, A 2.16, N 2.39, T 2.36, D 2.91, M 2.12, C 2.29, L 2.1
V22: I 2.04, R 1.66, E 1.55, Y 2.01, L 2.21, K 1.64, S 2.25, W 2.11, P 1.83, F 1.59, D 2.02, Q 1.54, C 1.79, G 2, M 2.08, H 2.74, A 1.71, N 2.01, T 1.95
D20: G 1.6, V 1.14, Y 1.76, K 2.06, S 2.24, N 2.43, F 1.68, P 2.35, W 2.27, H 2.06, I 1.74, C 1.83, E 2.03, A 2.13, Q 1.78, M 1.89, L 1.7, T 1.54, R 2.22

Variants of: B2
Test: as above
Conditions: c terminus: a fixed tail appended

Protein stability index: each site, then its substitutions
V2: E 4.23, R 4.6, F 3.16, L 3.93, H 3.67, I 3.05, K 2.77, D 3.95, P 4.05, Q 3.94, N 3.84, T 4.09, M 4.2, S 4.51, Y 3.56, G 4.23, C 4.26, A 4.31
S4: R 3.82, I 2.28, P 4.45, W 1.83, Q 4.02, D 3.92, C 3.56, N 4.01, H 3.31, M 2.75, V 2.42, Y 1.99, E 5.11, G 4.17, F 2.65, T 3.73, L 2.89
P1: R 2.62, E 3.2, C 3.12, N 3.58, Q 3.81, V 1.86, F 1.19, H 3.02, W 2.17, L 1.79, G 3.77, D 4.28, Y 1.52, T 2.22
V3: M 3.61, F 3.86, K 3.48, T 4.66, G 3.98, H 3.38, D 3.91, I 3.49, W 4.09, N 3.92, Y 3.88, P 3.82, S 3.18, Q 3.87, L 3.74, E 4.81, A 3.17
M5: A 4.97, C 4.64
